Where two headings read alike, the source gives them in different places.

To fix the notation:
B1: untagged recombinant Nap1 (natural protein, yeast, UniProt P25293 1-417, looked up)
chain: MSDPIRTKPKSSMQIDNAPTPHNTPASVLNPSYLKNGNPVRAQAQEQDDKIGTINEEDILANQPLLLQSIQDRLGSLVGQDSGYVGGLPKNVKEKLLSLKTLQSELFEVEKEFQVEMFELENKFLQKYKPIWEQRSRIISGQEQPKPEQIAKGQEIVESLNETELLVDEEEKAQNDSEEEQVKGIPSFWLTALENLPIVCDTITDRDAEVLEYLQDIGLEYLTDGRPGFKLLFRFDSSANPFFTNDILCKTYFYQKELGYSGDFIYDHAEGCEISWKDNAHNVTVDLEMRKQRNKTTKQVRTIEKITPIESFFNFFDPPKIQNEDQDEELEEDLEERLALDYSIGEQLKDKLIPRAVDWFTGAALEFEFEEDEEEADEDEDEEEDDDHGLEDDDGESAEEQDDFAGRPEQAPECKQS
B2: GST-Htz1_(1–53) (domain or fragment, yeast, UniProt Q12692 1-53, looked up)
chain: MSGKAHGGKGKSGAKDSGSLRSQSSSARAGLQFPVGRIKRYLKRHATGRTRVG
B3: H6-Srp1 (natural protein, yeast, UniProt Q02821 1-542, looked up)
chain: MDNGTDSSTSKFVPEYRRTNFKNKGRFSADELRRRRDTQQVELRKAKRDEALAKRRNFIPPTDGADSDEEDESSVSADQQFYSQLQQELPQMTQQLNSDDMQEQLSATVKFRQILSREHRPPIDVVIQAGVVPRLVEFMRENQPEMLQLEAAWALTNIASGTSAQTKVVVDADAVPLFIQLLYTGSVEVKEQAIWALGNVAGDSTDYRDYVLQCNAMEPILGLFNSNKPSLIRTATWTLSNLCRGKKPQPDWSVVSQALPTLAKLIYSMDTETLVDACWAISYLSDGPQEAIQAVIDVRIPKRLVELLSHESTLVQTPALRAVGNIVTGNDLQTQVVINAGVLPALRLLLSSPKENIKKEACWTISNITAGNTEQIQAVIDANLIPPLVKLLEVAEYKTKKEACWAISNASSGGLQRPDIIRYLVSQGCIKPLCDLLEIADNRIIEVTLDALENILKMGEADKEARGLNINENADFIEKAGGMEKIFNCQQNENDKIYEKAYKIIETYFGEEEDAVDETMAPQNAGNTFGFGSNVNQQFNFN

What all share (test): pull-down
Assay [1] concerns the target T1, MBP-Kap114 (yeast, UniProt P53067 1-1004).
T1 sequence (looked up): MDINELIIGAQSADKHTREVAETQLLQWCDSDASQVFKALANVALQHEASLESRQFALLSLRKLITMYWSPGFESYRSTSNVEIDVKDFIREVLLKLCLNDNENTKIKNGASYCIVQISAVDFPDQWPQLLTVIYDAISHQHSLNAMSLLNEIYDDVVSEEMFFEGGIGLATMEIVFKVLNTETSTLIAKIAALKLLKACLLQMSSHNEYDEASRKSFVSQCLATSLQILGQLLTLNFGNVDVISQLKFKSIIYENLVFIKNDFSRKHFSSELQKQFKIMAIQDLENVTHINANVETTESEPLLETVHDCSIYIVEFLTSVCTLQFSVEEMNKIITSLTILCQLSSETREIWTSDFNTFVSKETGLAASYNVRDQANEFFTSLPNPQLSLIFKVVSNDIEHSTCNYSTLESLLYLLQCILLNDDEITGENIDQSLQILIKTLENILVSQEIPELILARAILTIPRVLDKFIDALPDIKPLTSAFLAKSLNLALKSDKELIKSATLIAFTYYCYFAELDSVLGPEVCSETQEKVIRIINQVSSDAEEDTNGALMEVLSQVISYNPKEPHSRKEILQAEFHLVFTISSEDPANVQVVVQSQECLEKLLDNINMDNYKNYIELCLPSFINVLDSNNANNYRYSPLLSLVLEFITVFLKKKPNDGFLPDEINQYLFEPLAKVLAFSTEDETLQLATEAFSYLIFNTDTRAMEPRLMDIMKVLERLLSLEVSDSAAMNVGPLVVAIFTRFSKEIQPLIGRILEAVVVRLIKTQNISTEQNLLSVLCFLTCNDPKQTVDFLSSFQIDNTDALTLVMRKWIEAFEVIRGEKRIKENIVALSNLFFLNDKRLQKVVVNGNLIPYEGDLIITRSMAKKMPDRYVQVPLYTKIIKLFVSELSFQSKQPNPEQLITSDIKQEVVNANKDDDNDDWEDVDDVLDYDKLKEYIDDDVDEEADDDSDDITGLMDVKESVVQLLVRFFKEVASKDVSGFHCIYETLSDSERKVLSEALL

In assay [2] the target is T1, MBP-Kap114. This is another data set of the same source.
The next assay concerns the target T2, MBP-Kap123 (yeast, UniProt P40069 1-1113).
T2 sequence (looked up): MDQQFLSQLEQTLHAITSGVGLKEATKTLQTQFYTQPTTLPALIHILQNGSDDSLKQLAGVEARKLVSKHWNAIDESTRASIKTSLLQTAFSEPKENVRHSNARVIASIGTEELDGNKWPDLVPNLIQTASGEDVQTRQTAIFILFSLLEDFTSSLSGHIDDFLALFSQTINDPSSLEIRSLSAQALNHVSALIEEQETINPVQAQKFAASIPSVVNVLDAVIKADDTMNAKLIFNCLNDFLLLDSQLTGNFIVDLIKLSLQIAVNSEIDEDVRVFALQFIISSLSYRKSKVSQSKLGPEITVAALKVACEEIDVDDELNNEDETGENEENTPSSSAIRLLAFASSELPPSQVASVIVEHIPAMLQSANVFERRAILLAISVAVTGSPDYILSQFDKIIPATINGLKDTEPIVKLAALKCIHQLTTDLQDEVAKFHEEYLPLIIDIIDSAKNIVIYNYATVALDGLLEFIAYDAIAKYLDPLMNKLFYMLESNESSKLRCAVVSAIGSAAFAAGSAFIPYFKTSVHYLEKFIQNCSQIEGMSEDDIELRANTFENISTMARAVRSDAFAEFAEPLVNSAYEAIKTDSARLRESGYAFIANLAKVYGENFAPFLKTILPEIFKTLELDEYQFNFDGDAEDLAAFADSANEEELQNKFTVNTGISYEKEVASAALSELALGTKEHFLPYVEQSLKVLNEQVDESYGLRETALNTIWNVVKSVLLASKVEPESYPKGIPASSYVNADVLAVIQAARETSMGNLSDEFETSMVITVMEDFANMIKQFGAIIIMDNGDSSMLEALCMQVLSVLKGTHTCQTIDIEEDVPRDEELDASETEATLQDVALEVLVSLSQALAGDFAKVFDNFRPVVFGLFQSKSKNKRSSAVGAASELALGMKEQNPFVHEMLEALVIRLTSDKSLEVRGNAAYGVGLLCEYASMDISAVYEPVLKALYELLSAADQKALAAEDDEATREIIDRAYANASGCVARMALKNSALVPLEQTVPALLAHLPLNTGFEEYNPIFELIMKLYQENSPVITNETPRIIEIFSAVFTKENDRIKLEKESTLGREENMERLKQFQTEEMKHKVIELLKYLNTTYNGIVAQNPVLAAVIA

Assay [3] deals with T3, untagged recombinant Kap95 (yeast, UniProt Q06142 1-861).
T3 sequence (looked up): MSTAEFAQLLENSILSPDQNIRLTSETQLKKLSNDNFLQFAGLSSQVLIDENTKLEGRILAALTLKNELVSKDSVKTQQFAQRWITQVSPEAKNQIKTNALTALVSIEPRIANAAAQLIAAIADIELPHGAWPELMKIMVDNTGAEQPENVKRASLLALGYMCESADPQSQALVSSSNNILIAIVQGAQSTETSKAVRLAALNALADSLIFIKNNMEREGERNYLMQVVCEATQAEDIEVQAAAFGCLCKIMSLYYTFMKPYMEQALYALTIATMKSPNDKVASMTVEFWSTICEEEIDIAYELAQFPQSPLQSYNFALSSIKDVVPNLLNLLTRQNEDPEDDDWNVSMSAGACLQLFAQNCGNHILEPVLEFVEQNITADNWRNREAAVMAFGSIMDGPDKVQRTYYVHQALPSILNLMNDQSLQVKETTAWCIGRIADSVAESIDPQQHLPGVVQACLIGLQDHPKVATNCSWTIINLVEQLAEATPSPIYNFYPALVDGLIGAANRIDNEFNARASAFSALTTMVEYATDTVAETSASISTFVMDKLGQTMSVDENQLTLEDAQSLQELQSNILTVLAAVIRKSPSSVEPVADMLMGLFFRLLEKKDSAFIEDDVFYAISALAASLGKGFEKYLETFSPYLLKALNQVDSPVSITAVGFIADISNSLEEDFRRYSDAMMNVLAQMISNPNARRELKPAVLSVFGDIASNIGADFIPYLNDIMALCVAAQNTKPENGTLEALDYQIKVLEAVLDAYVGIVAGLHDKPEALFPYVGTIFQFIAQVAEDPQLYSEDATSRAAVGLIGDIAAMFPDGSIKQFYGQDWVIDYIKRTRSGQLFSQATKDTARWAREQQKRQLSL

Assay [4] concerns the target B1.
The target in assay [5] is T3, untagged recombinant Kap95. This is another data set of the same source.

B1: the binding result with MBP-Kap114 [1] was “binds”.
For the molecule B2, the binding result (in the assay with MBP-Kap114 [2]; in the assay with MBP-Kap123; in assay [3]; in assay [4]) was “binds” in each case.
Consider B3, for which the binding result in assay [5] was “binds”.

The values above are taken from paper PMC2907061 (Traffic (Copenhagen, Denmark), 2009).
